{"source": "IntAct's records for PubMed 24141193", "parents": {"B1": {"name": "Protein kinase doc (Escherichia phage P1), Q06259 (parent)", "chain": "MRHISPEELIALHDANISRYGGLPGMSDPGRAEAIIGRVQARVAYEEITDLFEVSATYLVATARGHIFNDANKRTALNSALLFLRRNGVQVFDSPELADLTVGAATGEISVSSVADTLRRLYGSAE"}}}
{"variants_of": "B1", "conditions": "with eftu1_ecoli tufA"}
{"variant": "R64G", "effect of a mutation on the interaction": "disrupting interaction strength"}
